Measured values from PMC7337497 (The Journal of Cell Biology, 2020).

B1: GST-mCherry-WIPI3 (natural protein)
chain: not shown
notes: WIPI3, human; synthetic gene; Construct GST-TEV-mCherry-WIPI3; held on glutathione beads in the assay; also called GST-mCherry–tagged WIPI3; source: HEK293 GnTi, transfected, purified; not shown: GST, N-terminal, kept; mCherry, N-terminal, kept
B2: mCherry-Atg21 (natural protein, S. cerevisiae, UniProt Q02887 1-496, looked up)
chain: MKVLQFNQDATCCVVAASSHQISIFNCDPFGKCFEIDTKNSKKKTSNNNGSASNSESRNNEESILITNGSRDRTDAEEEEDNEDNALVTGNILKEGEFVIEMLFSTSLIAIADRGQGLNKGKKLKIVNTKRKCTICEIVFPHEIVDVVMNRKRMCVLLESDQIFIYDISCMKPLETIDLWEDHYKRSQANSFSNASNTGTLEGDSANLNRVATNLLANATQKSVNGSNPSVRTRRNSLRSKIRPRMVLSNDDRSILCFTAYSSPKKNKPNSEALYDVVIYDTLNVTPVNYLNSVHKGNVACLAVSHDGKLLATASDKGTIIRVFHTGVDSDYMSSRSLFKEFRRGTRLCNLYQLAFDKSMTMIGCVGDTDTIHLFKLDDASNSLPGDNSSNGHWNEEEYILASNSNPSMGTPKEIPLSKPRIANYFSKKIKSSIPNQNLSRNFAYITVNESNRSCLGFPDEFPNQVYIASDDGTFSIYSIPSKPGECVLTKNNKFT
notes: also called yeast Atg21; source: E. coli Rosetta pLysS, purified (Ni-NTA, TEV, Superdex 200); not shown: 6xHis, N-terminal, cleaved; mCherry, N-terminal, kept

Key:
[1] = target: T1, ATG12–ATG5-ATG16L1-GFP complex (E3-GFP) (human, UniProt O94817 1-140; Q9H1Y0 1-275; Q676U5-1 1-607, conjugated to a lysine residue in ATG5 (ATG12–ATG5 conjugate) | a lysine residue conjugated to ATG12); assay: microscopy-based bead protein-protein interaction assay; 500 nM GST-mCherry-WIPI3 or GST-mCherry-WIPI4 and 100 nM E3-GFP with glutathione-coated polystyrene beads; 25 mM Hepes pH 7.5, 150 mM NaCl, 1 mM TCEP; 30 min RT, washed three times, confocal imaging; conditions: both partners purified
T1 construct: ATG12, human; synthetic gene codon optimised for Sf9; conjugated to ATG5 by coexpressed ATG7 and ATG10; ATG5, human; ATG16L1 isoform β, human; Dimer with two copies of each subunit by static light scattering; no TEV cleavage is described for this complex; also called GFP-tagged E3; E3 complex; source: Sf9, coexpressed from one poly-cistronic construct with ATG7 and ATG10, purified (StrepTactin, …)

[2] = target: T1, ATG12–ATG5-ATG16L1-GFP complex (E3-GFP); assay: microscopy-based bead protein-protein interaction assay; RFP-Trap beads coated with mCherry-WIPI2d, mCherry-Atg21 or mCherry as baits, 5 µM E3-GFP as prey; 25 mM Hepes pH 7.5, 150 mM NaCl, 1 mM DTT; at least 30 min at RT (22°C), confocal imaging; conditions: both partners purified

T1 sequence (O94817 whole entry, chain 1 of 3, canonical isoform): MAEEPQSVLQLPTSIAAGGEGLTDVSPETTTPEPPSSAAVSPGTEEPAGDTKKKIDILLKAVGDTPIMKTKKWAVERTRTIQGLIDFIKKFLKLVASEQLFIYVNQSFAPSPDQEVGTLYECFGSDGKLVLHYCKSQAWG
T1 sequence (Q9H1Y0 whole entry, chain 2 of 3, canonical isoform): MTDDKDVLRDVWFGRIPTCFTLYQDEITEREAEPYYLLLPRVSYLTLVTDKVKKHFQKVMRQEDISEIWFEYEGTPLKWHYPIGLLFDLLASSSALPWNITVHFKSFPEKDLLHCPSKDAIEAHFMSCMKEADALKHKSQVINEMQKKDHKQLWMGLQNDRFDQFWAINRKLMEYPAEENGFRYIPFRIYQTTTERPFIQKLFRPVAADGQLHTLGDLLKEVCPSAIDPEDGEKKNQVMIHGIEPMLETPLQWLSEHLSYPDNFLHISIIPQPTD
T1 sequence (Q676U5 whole entry, chain 3 of 3, canonical isoform): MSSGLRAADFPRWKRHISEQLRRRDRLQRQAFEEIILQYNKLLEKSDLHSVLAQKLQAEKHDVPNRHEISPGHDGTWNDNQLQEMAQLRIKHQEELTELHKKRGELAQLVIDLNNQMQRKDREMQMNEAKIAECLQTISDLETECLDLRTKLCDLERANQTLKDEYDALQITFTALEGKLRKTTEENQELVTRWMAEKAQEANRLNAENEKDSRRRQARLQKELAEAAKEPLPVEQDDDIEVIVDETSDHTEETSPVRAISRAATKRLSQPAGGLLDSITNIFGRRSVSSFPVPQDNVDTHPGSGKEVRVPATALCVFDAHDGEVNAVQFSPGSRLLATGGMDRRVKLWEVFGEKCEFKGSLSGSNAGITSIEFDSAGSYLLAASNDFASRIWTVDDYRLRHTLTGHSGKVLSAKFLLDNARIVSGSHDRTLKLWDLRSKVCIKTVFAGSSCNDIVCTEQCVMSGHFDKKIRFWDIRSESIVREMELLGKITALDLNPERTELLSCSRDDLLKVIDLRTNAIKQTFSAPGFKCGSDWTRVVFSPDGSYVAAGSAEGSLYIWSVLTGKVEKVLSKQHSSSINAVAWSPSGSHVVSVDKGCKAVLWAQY

Row | Binder | binding result [1] | binding result [2]
1 | B1 | binds | 
2 | B2 |  | binds
